{"source": "patent US20190241648A1", "about": "(STATEN BIOTECHNOLOGY B V, published 2019)", "binders": {"B1": {"name": "Llama antibody 5E5 (antibody, V domains shown)", "VH": "QLQLVESGGGLVQPGGSLRLSCAASGFTFGTYSMRWVRQVPRKALEWVSSISTDGGGTAYRDSVKGRFTISRDNAKNTLYLQMNNLKPEDTAIYYCVIAGYSDWGQGTQVTVSS", "VL": "ATMLTQSPGSLSVVPGESASISCKTSQGLVHSDGKTYFYWFLQKPGQSPQQLIYQVSNRASGVPDRFTGSGSGTDFTLKISGVKAEDAGVYYCAQGTYYPHTFGSGTRLEIK", "notes": "detected with goat anti-human IgG (Fc); also called mAb 5E5"}}, "test_in_all_cases": "cyclic peptide substitution array", "key": {"[1]": {"biological_target": "T1, ApoC3 peptide V71C (human, thioether (positions not given here); also: cyclic (thioether), ring places not given here)", "T1 peptide": "DKFSEFWDLDPEC", "in_short": "(§1)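 Peptide microarrays incubated with antibody samples, then stained with goat anti-human IgG (Fc) DyLight680 and anti-HA DyLight800 control antibodies, scanned at intensity 7/7 (red/green). Secondary-only pre-stain checked background binding; framing HA peptides served as quality control; substitution effects read as changes in spot intensity.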"}, "[2]": {"biological_target": "T2, ApoC3 peptide F64D (human, cyclic (thioether))", "T2 peptide": "DKFSEDWDLDPEV", "in_short": "as §1"}, "[3]": {"biological_target": "T3, ApoC3 peptide W65E (human, not fully specified; cyclic (thioether))", "T3 peptide": "DKFSEFEDLDPEV", "in_short": "as §1"}, "[4]": {"biological_target": "T4, ApoC3 peptide E70F (human, cyclic (thioether))", "T4 peptide": "DKFSEFWDLDPFV", "in_short": "as §1"}, "[5]": {"biological_target": "T5, ApoC3 peptide S62G (human, not fully specified; cyclic (thioether))", "T5 peptide": "DKFGEFWDLDPEV", "in_short": "as §1"}, "[6]": {"biological_target": "T6, ApoC3 peptide F64G (human, thioether (positions not given here); not fully specified (bridges); also: cyclic (thioether), positions not given here)", "T6 peptide": "DKFSEGWDLDPEV", "in_short": "as §1"}, "[7]": {"biological_target": "T7, ApoC3 peptide E70G (human, cyclic (thioether))", "T7 peptide": "DKFSEFWDLDPGV", "in_short": "as §1"}, "[8]": {"biological_target": "T8, ApoC3 peptide E63H (human, cyclic (thioether))", "T8 peptide": "DKFSHFWDLDPEV", "in_short": "as §1"}, "[9]": {"biological_target": "T9, ApoC3 peptide L67H (human, thioether (positions not given here); not fully specified (bridges); also: thioether between a C-terminal Cys side chain and a modified N-terminus, the Cys is not in the chain)", "T9 peptide": "DKFSEFWDHDPEV", "in_short": "as §1"}, "[10]": {"biological_target": "T10, ApoC3 peptide D66I (human, not fully specified; cyclic (thioether))", "T10 peptide": "DKFSEFWILDPEV", "in_short": "as §1"}, "[11]": {"biological_target": "T11, ApoC3 peptide S62K (human, thioether (positions not given here); also: cyclic (thioether), ring places not given here)", "T11 peptide": "DKFKEFWDLDPEV", "in_short": "as §1"}, "[12]": {"biological_target": "T12, ApoC3 peptide D66K (human, not fully specified; cyclic (thioether))", "T12 peptide": "DKFSEFWKLDPEV", "in_short": "as §1"}, "[13]": {"biological_target": "T13, ApoC3 peptide E70K (human, cyclic (thioether))", "T13 peptide": "DKFSEFWDLDPKV", "in_short": "as §1"}, "[14]": {"biological_target": "T14, ApoC3 peptide V71K (human, thioether (positions not given here); also: cyclic (thioether), ring places not given here)", "T14 peptide": "DKFSEFWDLDPEK", "in_short": "as §1"}, "[15]": {"biological_target": "T15, ApoC3 peptide E70L (human, cyclic (thioether))", "T15 peptide": "DKFSEFWDLDPLV", "in_short": "as §1"}, "[16]": {"biological_target": "T16, ApoC3 peptide V71L (human, thioether (positions not given here); also: cyclic (thioether), ring places not given here)", "T16 peptide": "DKFSEFWDLDPEL", "in_short": "as §1"}, "[17]": {"biological_target": "T17, ApoC3 peptide F61N (human, cyclic (thioether))", "T17 peptide": "DKNSEFWDLDPEV", "in_short": "as §1"}, "[18]": {"biological_target": "T18, ApoC3 peptide S62N (human, thioether (positions not given here); also: cyclic (thioether), ring places not given here)", "T18 peptide": "DKFNEFWDLDPEV", "in_short": "as §1"}, "[19]": {"biological_target": "T19, ApoC3 peptide W65N (human, not fully specified; cyclic (thioether))", "T19 peptide": "DKFSEFNDLDPEV", "in_short": "as §1"}, "[20]": {"biological_target": "T20, ApoC3 peptide V71Q (human, not fully specified; cyclic (thioether))", "T20 peptide": "DKFSEFWDLDPEQ", "in_short": "as §1"}, "[21]": {"biological_target": "T21, ApoC3 peptide V71R (human, not fully specified; cyclic (thioether))", "T21 peptide": "DKFSEFWDLDPER", "in_short": "as §1"}, "[22]": {"biological_target": "T22, ApoC3 peptide E63T (human, cyclic (thioether))", "T22 peptide": "DKFSTFWDLDPEV", "in_short": "as §1"}, "[23]": {"biological_target": "T23, ApoC3 peptide D68T (human, cyclic (thioether))", "T23 peptide": "DKFSEFWDLTPEV", "in_short": "as §1"}, "[24]": {"biological_target": "T24, ApoC3 peptide F61V (human, cyclic (thioether))", "T24 peptide": "DKVSEFWDLDPEV", "in_short": "as §1"}, "[25]": {"biological_target": "T25, ApoC3 peptide S62W (human, thioether (positions not given here); also: cyclic (thioether), ring places not given here)", "T25 peptide": "DKFWEFWDLDPEV", "in_short": "as §1"}, "[26]": {"biological_target": "T26, ApoC3 peptide D68W (human, cyclic (thioether))", "T26 peptide": "DKFSEFWDLWPEV", "in_short": "as §1"}, "[27]": {"biological_target": "T27, ApoC3 peptide D59Y (human, not fully specified; cyclic (thioether))", "T27 peptide": "YKFSEFWDLDPEV", "in_short": "as §1"}, "[28]": {"biological_target": "T28, ApoC3 peptide D66Y (human, cyclic (thioether))", "T28 peptide": "DKFSEFWYLDPEV", "in_short": "as §1"}, "[29]": {"biological_target": "T29, ApoC3 peptide D66A (human, not fully specified; cyclic (thioether))", "T29 peptide": "DKFSEFWALDPEV", "in_short": "as §1"}, "[30]": {"biological_target": "T30, ApoC3 peptide E70A (human, cyclic (thioether))", "T30 peptide": "DKFSEFWDLDPAV", "in_short": "as §1"}, "[31]": {"biological_target": "T31, ApoC3 peptide S62C (human, not fully specified; cyclic (thioether))", "T31 peptide": "DKFCEFWDLDPEV", "in_short": "as §1"}}, "note": "Ends that are not written are not given here."}
{"binder": "B1", "values": [{"measurement": "% of binding to wild-type peptide", "setting": "[1]", "result": 56.9, "unit": "%"}, {"measurement": "% of binding to wild-type peptide", "setting": "[2]", "result": 259, "unit": "%"}, {"measurement": "% of binding to wild-type peptide", "setting": "[3]", "result": 0, "unit": "%"}, {"measurement": "% of binding to wild-type peptide", "setting": "[4]", "result": 40.1, "unit": "%"}, {"measurement": "% of binding to wild-type peptide", "setting": "[5]", "result": 0.88, "unit": "%"}, {"measurement": "% of binding to wild-type peptide", "setting": "[6]", "result": 212, "unit": "%"}, {"measurement": "% of binding to wild-type peptide", "setting": "[7]", "result": 46.1, "unit": "%"}, {"measurement": "% of binding to wild-type peptide", "setting": "[8]", "result": 49.9, "unit": "%"}, {"measurement": "% of binding to wild-type peptide", "setting": "[9]", "result": 3.58, "unit": "%"}, {"measurement": "% of binding to wild-type peptide", "setting": "[10]", "result": 0, "unit": "%"}, {"measurement": "% of binding to wild-type peptide", "setting": "[11]", "result": 4.05, "unit": "%"}, {"measurement": "% of binding to wild-type peptide", "setting": "[12]", "result": 0, "unit": "%"}, {"measurement": "% of binding to wild-type peptide", "setting": "[13]", "result": 60.1, "unit": "%"}, {"measurement": "% of binding to wild-type peptide", "setting": "[14]", "result": 91.1, "unit": "%"}, {"measurement": "% of binding to wild-type peptide", "setting": "[15]", "result": 59.1, "unit": "%"}, {"measurement": "% of binding to wild-type peptide", "setting": "[16]", "result": 90.6, "unit": "%"}, {"measurement": "% of binding to wild-type peptide", "setting": "[17]", "result": 25.9, "unit": "%"}, {"measurement": "% of binding to wild-type peptide", "setting": "[18]", "result": 0, "unit": "%"}, {"measurement": "% of binding to wild-type peptide", "setting": "[19]", "result": 0, "unit": "%"}, {"measurement": "% of binding to wild-type peptide", "setting": "[20]", "result": 86.8, "unit": "%"}, {"measurement": "% of binding to wild-type peptide", "setting": "[21]", "result": 57.3, "unit": "%"}, {"measurement": "% of binding to wild-type peptide", "setting": "[22]", "result": 0, "unit": "%"}, {"measurement": "% of binding to wild-type peptide", "setting": "[23]", "result": 0.65, "unit": "%"}, {"measurement": "% of binding to wild-type peptide", "setting": "[24]", "result": 20.2, "unit": "%"}, {"measurement": "% of binding to wild-type peptide", "setting": "[25]", "result": 0, "unit": "%"}, {"measurement": "% of binding to wild-type peptide", "setting": "[26]", "result": 0, "unit": "%"}, {"measurement": "% of binding to wild-type peptide", "setting": "[27]", "result": 50.3, "unit": "%"}, {"measurement": "% of binding to wild-type peptide", "setting": "[28]", "result": 0, "unit": "%"}, {"measurement": "% of binding to wild-type peptide", "setting": "[29]", "result": 0, "unit": "%"}, {"measurement": "% of binding to wild-type peptide", "setting": "[30]", "result": 50, "unit": "%"}, {"measurement": "% of binding to wild-type peptide", "setting": "[31]", "result": 0, "unit": "%"}]}
